The supplement of paper PMC7877785
± gives the uncertainty stated by the source.

Test: self-splicing fitness, log relative to wild type (ln ratio); higher = more splicing; Tetrahymena group I intron in knt gene, E. coli kanamycin selection, DiMSum; sequences stand for … in CUCUCU…GGAGGGAAAAGUUAUCAGGCAUGCACCUGGUAGCUAGUCUUUAAACCAAUAGAUUGCAUCGGUUUAAAAGGCAAGACCGUCAAAUUGCGGGAAAGGGGUCAACAGCCGUUCAGUACCAAGUCUCAGGGGAAACUUUGAGAUGGCCUUGCAAAGGGUAUGGUAAUAAGCUGACGGACAUGGUCCUAACCACGCAGCCAAGUCCUAAGUCAACAGAUCUUCUGUUGAUAUGGAUGCAGUUCACAGACUAAAUGUCGGUCGGGGAAGAUGUAUUCUUCUCAUAAGAUAUAGUCGGACCUCUCCUUAAUGGGAGCUAGCGGAUGAAGUGAUGCAACACUGGAGCCGCUGGGAACUAAUUUGUAUGCGAAAGUAUAUUGAUUAGUUUUGGAGUACUCGUGGUCG
How it was run: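 The eight P1ex-region nucleotides of an intron in the knt kanamycin-resistance gene on pET-22b(+) were all randomised and the library put into E. coli BL21(DE3). Six replicate transformations were grown overnight at 37°C or 30°C on LB agar with or without 25 μg/mL kanamycin, together with 100 μg/mL carbenicillin, 50 μM IPTG and 0.2% rhamnose. Colonies were pooled and amplicon-sequenced on an Illumina HiSeq 2500. Fitness from DiMSum is the error-weighted combination of wild-type-normalised replicate fold changes, kanamycin over none.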

Row | Sequence | self-splicing fitness (ln) (30 °C) | self-splicing fitness (ln) (37 °C)
1 | CGCGAGCAAUAUUACGAUGU | -3.79 ± 0.23 | -2.74 ± 0.22
2 | CGCGAGCAAUAUUACGCAUG | -2.48 ± 0.2 | -2.14 ± 0.16
3 | CGCGAGCAAUAUUACGCCUA |  | -2.42 ± 0.45
4 | CGCGAGCAAUAUUACGCCUG | -2.95 ± 0.34 | -1.99 ± 0.26
5 | CGCGAGCAAUAUUACGCGAU | -3.96 ± 0.24 | -3.09 ± 0.27
6 | CGCGAGCAAUAUUACGCGGU | -3.56 ± 0.3 | -2.79 ± 0.18
7 | CGCGAGCAAUAUUACGCUAU | -3.44 ± 0.34 | -2.2 ± 0.23
8 | CGCGAGCAAUAUUACGCUUA | -2.27 ± 0.23 | -1.97 ± 0.24
9 | CGCGAGCAAUAUUACGGCAC |  | -1.87 ± 0.41
10 | CGCGAGCAAUAUUACGGUAG | -1.19 ± 0.12 | -0.901 ± 0.13
11 | CGCGAGCAAUAUUACGGUGC |  | -2.47 ± 0.5
12 | CGCGAGCAAUAUUACGGUGU | -3.91 ± 0.17 | -2.34 ± 0.15
13 | CGCGAGCAAUAUUACGUCCU |  | -1.69 ± 0.48
14 | CGCGAGCAAUAUUACGUGAG | -4.51 ± 0.39 | -2.54 ± 0.32
15 | CGCGAGCAAUAUUACGUUCA | -2.43 ± 0.19 | -1.5 ± 0.17
16 | CGCGAGCAAUAUUACGUUUA | -3.98 ± 0.25 | -3.3 ± 0.28
17 | CGCUAGCAAUAUUACGAAAG | -1.17 ± 0.091 | -0.395 ± 0.1
18 | CGCUAGCAAUAUUACGAACC | -2.92 ± 0.2 | -0.219 ± 0.16
19 | CGCUAGCAAUAUUACGACAA | -2.04 ± 0.18 | -1.83 ± 0.2
20 | CGCUAGCAAUAUUACGACAU | -3.31 ± 0.022 | -2.06 ± 0.036

Row | Sequence | self-splicing fitness (ln) (30 °C) | self-splicing fitness (ln) (37 °C)
21 | CGCUAGCAAUAUUACGACCC | -0.616 ± 0.16 | -0.956 ± 0.45
22 | CGCUAGCAAUAUUACGACGG | -0.226 ± 0.11 | 0.553 ± 0.14
23 | CGCUAGCAAUAUUACGACUC | -1.4 ± 0.1 | -1.61 ± 0.15
24 | CGCUAGCAAUAUUACGAGAC | -3.36 ± 0.12 | -2.45 ± 0.13
25 | CGCUAGCAAUAUUACGAGUU | -2.49 ± 0.1 | -2.38 ± 0.15
26 | CGCUAGCAAUAUUACGAUAA | -4.27 ± 0.36 | -2.35 ± 0.32
27 | CGCUAGCAAUAUUACGCAAA |  | -3.01 ± 0.47
28 | CGCUAGCAAUAUUACGCACA | -1.37 ± 0.13 | -0.405 ± 0.1
29 | CGCUAGCAAUAUUACGCCAG | -3.09 ± 0.15 | -2.81 ± 0.29
30 | CGCUAGCAAUAUUACGCGCC | -2.52 ± 0.19 | -2.24 ± 0.35
31 | CGCUAGCAAUAUUACGCGGG | -4.55 ± 0.26 | -2.08 ± 0.16
32 | CGCUAGCAAUAUUACGCUUC | -2.39 ± 0.28 | -2.39 ± 0.39
33 | CGCUAGCAAUAUUACGGACA | -0.438 ± 0.14 | -0.65 ± 0.13
34 | CGCUAGCAAUAUUACGGAGC | -2.64 ± 0.2 | -1.84 ± 0.24
35 | CGCUAGCAAUAUUACGGCGG | -1.68 ± 0.089 | -0.662 ± 0.11
36 | CGCUAGCAAUAUUACGGCUG | -1.13 ± 0.12 | -0.227 ± 0.14
37 | CGCUAGCAAUAUUACGGGCG | -2.95 ± 0.28 | -2.74 ± 0.44
38 | CGCUAGCAAUAUUACGUAAA | -2.46 ± 0.2 | -1.33 ± 0.31
39 | CGCUAGCAAUAUUACGUCAG | -1.4 ± 0.12 | -0.542 ± 0.14
